Results published in patent EP4786492A1.

Experiments:
[1] = target: human DLL3 endogenously expressed on SHP77 and NCI-H82 cells (human) (UniProt Q9NYJ7); assay: FACS SHP77 cells, 4 nM
[2] = target: human DLL3 endogenously expressed on SHP77 and NCI-H82 cells (human) (UniProt Q9NYJ7); assay: FACS SHP77 cells, 20 nM
[3] = target: human DLL3 endogenously expressed on SHP77 and NCI-H82 cells (human) (UniProt Q9NYJ7); assay: FACS SHP77 cells, 0.8 nM
[4] = target: human DLL3 endogenously expressed on SHP77 and NCI-H82 cells (human) (UniProt Q9NYJ7); assay: FACS SHP77 cells, 100 nM
[5] = target: human DLL3 endogenously expressed on SHP77 and NCI-H82 cells (human) (UniProt Q9NYJ7); assay: FACS SHP77 cells, 0.16 nM
[6] = target: human DLL3 endogenously expressed on SHP77 and NCI-H82 cells (human) (UniProt Q9NYJ7); assay: FACS SHP77 cells, 0.032 nM
[7] = target: human DLL3 endogenously expressed on SHP77 and NCI-H82 cells (human) (UniProt Q9NYJ7); assay: FACS SHP77 cells, 0.0064 nM
[8] = target: human DLL3 endogenously expressed on SHP77 and NCI-H82 cells (human) (UniProt Q9NYJ7); assay: FACS SHP77 cells, 0.00128 nM

Sequence of human DLL3 endogenously expressed on SHP77 and NCI-H82 cells (human) (Q9NYJ7 27-618): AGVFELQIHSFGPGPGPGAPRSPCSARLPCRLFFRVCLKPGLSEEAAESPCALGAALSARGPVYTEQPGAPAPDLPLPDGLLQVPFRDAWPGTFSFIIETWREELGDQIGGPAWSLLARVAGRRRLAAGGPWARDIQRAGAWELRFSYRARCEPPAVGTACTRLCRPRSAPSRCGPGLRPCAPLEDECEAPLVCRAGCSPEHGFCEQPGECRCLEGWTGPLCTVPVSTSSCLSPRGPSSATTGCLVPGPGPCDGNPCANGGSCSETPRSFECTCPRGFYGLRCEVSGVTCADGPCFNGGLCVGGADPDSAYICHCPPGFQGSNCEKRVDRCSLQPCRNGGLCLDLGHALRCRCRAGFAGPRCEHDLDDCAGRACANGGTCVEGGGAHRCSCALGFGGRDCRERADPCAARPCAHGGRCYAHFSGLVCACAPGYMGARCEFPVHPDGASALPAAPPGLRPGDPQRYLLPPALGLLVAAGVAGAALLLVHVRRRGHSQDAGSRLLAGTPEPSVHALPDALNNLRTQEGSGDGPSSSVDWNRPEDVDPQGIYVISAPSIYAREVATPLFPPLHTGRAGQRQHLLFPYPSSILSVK

MFI [1] [MFI]	MFI [2] [MFI]	MFI [3] [MFI]	MFI [4] [MFI]	MFI [5] [MFI]	MFI [6] [MFI]	MFI [7] [MFI]	MFI [8] [MFI]	Binder
365	468	208	412	130	98	90	82	mab008 scFv-hFc (Fc fusion, not shown: small tags and cut ends; a dimerising Fc or GST) scFv (part 1 of 2): DIVMTQSQKFMSTSVGDRVSITCKASQNVGTAVAWYQQKPGQSPKLLIFSASIRYTGVPDRFTGSGSGTDFTLTISNMQSEDLADYFCQQYSSSPYTFGGGTKLEIK scFv (part 2 of 2): EVQLQQSGPVLVKPGASVKMSCKASGYTFTDYYMNWVKRSHGKSLEWIGIINPYNGGTSYNQKFRGKATLTVDKSSNTAYMELNSLTSEDSAVYYCSRYDYDYDVEGAMDYWGQGTSVTVSS
681	829	461	1200	237	137	104	96	mab014 scFv-hFc (Fc fusion, not shown: small tags and cut ends; a dimerising Fc or GST) scFv (part 1 of 2): DIQMTQSSSSFSVSLGDRVTITCKASEDIYNRLAWYQQKPGNTPRLLISGATSLETGVPSRFSGSGSGKDFTLSITSLQTEDVATYYCQQYWSLPWTFGGGTKLEIK scFv (part 2 of 2): EVQLHQSGPELVKPGTSVKISCKASGYTFTDYYMNWVKQSHGKSLEWIGDINPNHGDTGYNQKFTGKATLTVDKSSSTAYMELRSLTSEDSAVYYCARNFFYYGTTYGWYFDVWGTGTTVTVSS
451	486	404	543	287	172	125	117	mab005 scFv-hFc (Fc fusion, not shown: small tags and cut ends; a dimerising Fc or GST) scFv (part 1 of 2): DIVLTQSPATLSVTPGDSVSLSCRASQSVSNDLHWYQQKSHESPRLLIKYASQSISGIPSRFSGSGSGTDFTLTINSVETEDFGMYFCQQSNNWPYTFGGGTKLEMK scFv (part 2 of 2): QVQLQQSGAELMKPGASVTLSCKATGYTLPGYWIEWVKQRPGHGLEWIGEILPGSSSANYNEKFKGKATFTADTSSNTAYMQLSSLTTEDSAIYYCASTYGTSLDYWGQGTTLTVSS
508	608	417	822	239	146	103	90	mab011 scFv-hFc (Fc fusion, not shown: small tags and cut ends; a dimerising Fc or GST) scFv (part 1 of 2): DIVLTQSPATLSVTPGDSVSLSCRASQSISNNLHWYQQKSHESPRLLIKYASQSISGIPSRFSGSGSGTDFTLSINSVETEDFGMYFCQQSNSWPWTFGGGTKLEIK scFv (part 2 of 2): EVQLQQSGPELVKPGASVKISCKASGYTFTDYYMNWVKQSHGKSLEWIGDISPNYGGTNYNQKFKGKATLTVDKSSSTACMELRSLTSEDSAVYYCTRSFYYYGTGYDWYFDVWGTGTTVTVSS
535	548	498	596	518	371	255	197	mab002 scFv-hFc (Fc fusion, not shown: small tags and cut ends; a dimerising Fc or GST) scFv (part 1 of 2): QIVLTQSPAIMSASPGEKVTMTCSARSSVSYMQWYQQKSGTSPKRWIYDTSKLASGVPARFSGSGSGTSYSLTISTMEAEDAATYYCQQWSSDPPTFGGGTKLEIK scFv (part 2 of 2): QIQLVQSGPELKKPGETVKISCKASGYTFTNYGMNWLKQAPGKGLKWMGWINTYTGESTYADDFKGRFAFSLETSASTVYLQINNLKNEDMATYFCARMGDGYYDFTMDYWGQGTSVTVSS
546	653	502	790	391	202	121	96	mab016 scFv-hFc (Fc fusion, not shown: small tags and cut ends; a dimerising Fc or GST) scFv (part 1 of 2): DIVMTQSQKFMSTTIGDRVSITCKASQNVGTTVAWYQQKPGQSPNLLLYSTSNRFTGVPDRFTGSGSGTDFTLTITNMQSEDLADYFCQQYNNYPLTFGGGTKLEIK scFv (part 2 of 2): EVNLEESGGGLVQPGGSMKLSCVASGFAFSNFWMQWVRQSPEKGLEWVAQIRLKSDNYAAHYAESVKGRFTISRDDSKSSVYLQLNNLRAEDTGTYYCTQGNWVGFAYWGQGTLVTVSA
337	729	164	1100	110	98	94	94	mab012 scFv-hFc (Fc fusion, not shown: small tags and cut ends; a dimerising Fc or GST) scFv (part 1 of 2): DVLMTQTPLSLPVSLGDQASISCRSSQSIVHSDGNTYLEWYLQKPGQSPKLLIYKVSNRFSGVPDRFSGSGSGTDFTLKISRVEAEDLGFYYCFQGSHVPFTFGSGTKLEIK scFv (part 2 of 2): QVQLQQSGPELVKPGASVKISCKASGYTFTDYYIHWVKQRPGQGLEWIGWTLPGSGSPYYNEKFKGKATLTVDKSSSTAYMLLSSLTSEDSAVYFCARWHYYYGSSYHFDYWGQGTTLTVSS
563	634	525	521	406	227	135	103	mab007 scFv-hFc (Fc fusion, not shown: small tags and cut ends; a dimerising Fc or GST) scFv (part 1 of 2): DVQITQSPSYLAASPGETITINCRASTSISKYLAWYQERPGKTNKLLIYSGSTLQSGIPSRFRGSGSGTDFTLTISSLEPEDFAMYYCQQHHVYPYTFGGGTKLEIK scFv (part 2 of 2): QVQLQQPGAELVRPGTSVKLSCKASGYTFTSYWMHWVKQRPGQGLEWIGVIDPSDSLANYNQEFKGKATLTVDTSSSTAYMQLSSLTSEDSAVYYCARDSTVVAPMDYWGQGTSVTVSS
664	718	643	876	497	267	152	112	mab006 scFv-hFc (Fc fusion, not shown: small tags and cut ends; a dimerising Fc or GST) scFv (part 1 of 2): DVQITQSPSYLAASPGETITINCRATKSISKYLAWYQEKPGKTNKLLIFSGSTLQSGIPSRFRGSGSGTDFTLTISSLEPEDFAMYYCQQHHEYPYTFGGGTKLEIK scFv (part 2 of 2): QVQLQQPGAELVRPGTSVKLSCKASGYTFTSYWMHWVRQRPGQGLEWIGVIDPSDSLANYNQEFKGKATLTVDTSSSTAYMQLSSLTSEDSAVYYCARDSTVVAPMDYWGQGTSVTVSS
